Common to all, as to test: cell-based or functional assay
Assay [1] has as its target AAV2 capsid (AAV2-Luciferase vector virions) (AAV2) (UniProt P03135).
Assay [2] addresses human intravenous immunoglobulin gamma (IVIG), 10% Human IVIG (Gamunex) (human).
Assay [3] deals with AAV neutralizing antibodies in AAV8-GFP immunized C57BL6 mice (mouse).
For assay [4], the target named is human intravenous immunoglobulin gamma (IVIG), 10% Human IVIG (Gamunex) (human). The source holds these as a separate data set.
The target in assay [5] is AAV2 capsid (AAV2-Luciferase vector virions) (AAV2) (UniProt P03135). The source holds these as a separate data set.

Consider four molecules from patent US20220260563A1.

Sequence of UniProt P03135 (P03135 whole entry, the tested form may be a part): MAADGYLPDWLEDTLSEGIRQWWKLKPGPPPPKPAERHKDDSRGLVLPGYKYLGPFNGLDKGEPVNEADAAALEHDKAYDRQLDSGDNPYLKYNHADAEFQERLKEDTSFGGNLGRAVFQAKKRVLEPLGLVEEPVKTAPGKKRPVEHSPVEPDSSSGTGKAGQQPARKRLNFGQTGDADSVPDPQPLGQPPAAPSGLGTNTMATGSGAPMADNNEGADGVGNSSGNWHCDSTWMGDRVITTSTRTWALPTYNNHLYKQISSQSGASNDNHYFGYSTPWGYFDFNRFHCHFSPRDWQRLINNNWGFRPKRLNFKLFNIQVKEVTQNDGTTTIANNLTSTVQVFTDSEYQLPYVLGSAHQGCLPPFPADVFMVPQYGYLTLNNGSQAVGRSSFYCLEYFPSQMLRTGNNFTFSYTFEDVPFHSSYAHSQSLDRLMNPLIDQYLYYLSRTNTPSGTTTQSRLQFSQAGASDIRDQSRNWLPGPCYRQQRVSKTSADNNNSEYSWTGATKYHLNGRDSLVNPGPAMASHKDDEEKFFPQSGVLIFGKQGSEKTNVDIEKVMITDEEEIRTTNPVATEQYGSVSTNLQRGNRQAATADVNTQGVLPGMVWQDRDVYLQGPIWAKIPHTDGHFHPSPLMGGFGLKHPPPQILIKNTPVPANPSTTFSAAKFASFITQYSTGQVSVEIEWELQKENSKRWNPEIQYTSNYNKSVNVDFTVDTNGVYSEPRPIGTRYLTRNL

As to “human intravenous immunoglobulin gamma (IVIG), 10% Human IVIG (Gamunex) (antibody)”, in assay [1], the percent of AAV2-Luciferase signal neutralized by 12.5 µg IVIG was found to be 80%, the percent of AAV2 neutralized by 12.5 µg IVIG turned out to be 75%, the percent of AAV2 neutralized by 200 µg IVIG amounted to 100% and the reduction in AAV signal by 12.5 µg IVIG without protein M amounted to 68%.
For “Protein M without cleavage of His tag (from UniProt P47523 37-556)”, in assay [2], the molar ratio of protein M to IVIG that protects AAV2 when protein M is pre-incubated with AAV2 (protein M molecules per IgG molecule) was above 2 and the protection of AAV2 from IVIG neutralization in 10% FBS, protein M to total IgG molar ratio (protein M molecules per IgG molecule) worked out at 1. Also, in assay [1], the molar ratio of protein M to AAV2 particle at which enhancement begins to saturate (protein M molecules per AAV2 particle) stood at 700000 and the molar ratio of protein M to AAV2 particle below which enhancement of luciferase signal is abolished (protein M molecules per AAV2 particle) is below 40000.

B1: Modified M. genitalium protein M MG29 (protein, not shown: small tags and cut ends)
chain: SLSLNDGSYQSEIDLSGGANFREKFRNFANELSEAITNSPKGLDRPVPKTEISGLIKTGDNFITPSFKAGYYDHVAEDGSLLSYYQSTEYFNNRVLMPILQTTNGTLMANNRGYDDVFRQVPRFPGWSNTKATTVSTSNNLTYDKWTYFAAKGSPLYDQYPNHTFEDVKTLAIDAKDISALKTTIDSEKPTYLIIRGLSGNGSQLNELQLPESVKKVSLYGDYTGVNVAKQIFANVVELEFYSTSKANSFGFNPLVLGSKTNVINDLFVSKPFTHIDLTQVTLQNSDNSAIDANKLKQAVGDIYNYRRFERQFQGYFAGGYIDKYLVKNVNTNKDSDDDLVYRSLKELNLHLEEAYREGDNTYYRVNENYYPGASIYENERASRDSEFQNEILKRAEQNGVTFDEN
Molecule B1 gave a luciferase signal of the saline leg against the protein M formulated leg, AAV8-Luciferase re-dosing in immunized mice in assay [3] above 98 % less.

B2: protein M (SEQ ID NO:2), His-tag removed by thrombin cleavage (protein)
chain: HHHHHHSSGLVPRGSHMTNLVNQSGYALVASGRSGNLGFKLFSTQSPSAEVKLKSLSLNDGSYQSEIDLSGGANFREKFRNFANELSEAITNSPKGLDRPVPKTEISGLIKTGDNFITPSFKAGYYDHVASDGSLLSYYQSTEYFNNRVLMPILQTTNGTLMANNRGYDDVFRQVPSFSGWSNTKATTVSTSNNLTYDKWTYFAAKGASPLYDSYPNHFFEDVKTLAIDAKDISALKTTIDSEKPTYLIIRGLSGNGSQLNELQLPESVKKVSLYGDYTGVNVAKQIFANVVELEFYSTSKANSEGFNPLVLGSKTNVIYDLFASKPFTHIDLTQVTLQNSDNSAIDANKLKQAVGDIYNYRRFERQFQGYFAGGYIDKYLVKNVNTNKDSDDDLVYRSLKELNLHLEEAYREGDNTYYRVNENYYPGASIYENERASRDSEFQNEILKRAEQNGVTFDENIKRITASGKYSVQFQKLENDTDSSLERMTKAVEGLVTVIGEEKFETVDITGVSSDTNEVKSLAKELKTNALGVKLKL
Regarding B2, in assay [4], the AAV2 luciferase signal, percent of no-IVIG control, at 8:1 molar ratio (33 µg protein M, 12.5 µg IVIG) (% of no-IVIG control) stood at 194; the AAV2 luciferase signal, percent of no-IVIG control, at 20:1 molar ratio (75 µg protein M, 12.5 µg IVIG) (% of no-IVIG control) was 256; the AAV2 luciferase signal, percent of no-IVIG control, at protein M:IgG molar ratio 0.5:1 (% of no-IVIG control) is 40; the AAV2 luciferase signal, percent of no-IVIG control, at protein M:IgG molar ratio 1:1 (% of no-IVIG control) amounted to 52. Also, in assay [4], the AAV2 luciferase signal, percent of no-IVIG control, at protein M:IgG molar ratios greater than 2:1 (% of no-IVIG control) was 108 to 193 and the molar ratio of protein M to IgG sufficient to prevent AAV2 neutralization (protein M molecules per IgG molecule) was 2. In assay [5], this molecule yielded an AAV2 luciferase signal relative to PBS control, 33 µg protein M incubated with AAV2 without IVIG (% of PBS control) of 216 and an AAV2 luciferase signal relative to PBS control, 75 µg protein M incubated with AAV2 without IVIG (% of PBS control) of 208.
